Source: patent publication US20140065154A1, “TLR3 BINDING AGENTS” (INNATE PHARMA, priority 2011, published 2014)
Entries after “also recorded” stand apart in the source; their conditions may differ.

What was measured:
TLR3 [1] = target: T1, TLR3 (Homo sapiens, UniProt O15455); assay: SPR (Biacore) bivalent affinity on immobilized TLR3; assay type: binding; set-up: purchased R&D Systems; conditions: neutral pH; own vs commercially available antibodies
Method: (a) General Biacore T100 methods. SPR measurements were performed on a Biacore T100 apparatus (Biacore GE Healthcare) at 25° C. In all Biacore experiments HBS-EP+ buffer (Biacore GE Healthcare) or 10 mM sodium acetate pH 5.6, 150 mM NaCl, 0.05% P20 served as running buffer and sensorgrams were analyzed with Biaevaluation 4.1 and Biacore T100 Evaluation software. Recombinant human and mouse TLR3 were purchased from R&D Systems. (b) Protein immobilization. Recombinant TLR3 protein was immobilized covalently to carboxyl groups in the dextran layer of a Biacore Series 5 Sensor Chip CM5 (chip). The chip surface was activated with EDC/NHS (0.2M N-ethyl-N′-(3-dimethylaminopropyl) carbodiimidehydrochloride, 0.05M N-hydroxysuccinimide (Biacore GE Healthcare)). […] Deactivation of the remaining activated groups was performed using 100 mM ethanolamine pH 8 (Biacore GE Healthcare). (c) Antibody binding analysis was run using HBS-EP+ (neutral pH). Antibodies at a concentration of 10 μg/ml were injected for 2 min at a constant flow rate of 10 μl/min over the immobilized proteins and allowed to dissociate for 3 min before regeneration by a ten second injection of 10 mM NaOH, 500 mM NaCl regeneration buffer. […]
Binding to TLR3 was determined at neutral (pH 7.2) and acid (pH 5.6) conditions, and KD values were calculated. […]

TLR3 [2] = target: T1, TLR3; assay: SPR competition assay with polyAU in acidic buffer; assay type: binding; set-up: purchased R&D Systems; conditions: pH 5.6
Method: (a) General Biacore T100 methods. SPR measurements were performed on a Biacore T100 apparatus (Biacore GE Healthcare) at 25° C. In all Biacore experiments HBS-EP+ buffer (Biacore GE Healthcare) or 10 mM sodium acetate pH 5.6, 150 mM NaCl, 0.05% P20 served as running buffer and sensorgrams were analyzed with Biaevaluation 4.1 and Biacore T100 Evaluation software. Recombinant human and mouse TLR3 were purchased from R&D Systems. (b) Protein immobilization. Recombinant TLR3 protein was immobilized covalently to carboxyl groups in the dextran layer of a Biacore Series 5 Sensor Chip CM5 (chip). The chip surface was activated with EDC/NHS (0.2M N-ethyl-N′-(3-dimethylaminopropyl) carbodiimidehydrochloride, 0.05M N-hydroxysuccinimide (Biacore GE Healthcare)). […] Deactivation of the remaining activated groups was performed using 100 mM ethanolamine pH 8 (Biacore GE Healthcare). (c) Antibody binding analysis was run using HBS-EP+ (neutral pH). Antibodies at a concentration of 10 μg/ml were injected for 2 min at a constant flow rate of 10 μl/min over the immobilized proteins and allowed to dissociate for 3 min before regeneration by a ten second injection of 10 mM NaOH, 500 mM NaCl regeneration buffer. Blank correction was performed on line by co-injecting the soluble antibodies onto the reference dextran flow cell. (d) Competition assay in acidic buffer (pH 5.6). Flow rate was set to 10 μl/min, the first antibody at a concentration of 50 μg/ml (or polyAU at 100 μg/ml) was injected for 2 min, 3 times successively in order to saturate the rhTLR3 surface. The second antibody (or polyAU at 100 μg/ml when the polyAU was added after first antibody) was then injected for 2 min also at 50 μg/ml and allowed to dissociate for 3 min before regeneration by a 15 second injection of 10 mM NaOH, 500 mM NaCl regeneration buffer. Blank correction was also performed on line and the curve using the saturating antibody (or neucleic acid) followed by an injection of buffer subtracted to remove the signal due to the dissociation of the first complex. The resulting signal was compared to that obtained by the injection of the second antibody directly onto the rhTLR3 surface.
Competition assays were conducted according to the methods described for SPR, item d) at pH 5.6.
Buffer (followed by polyAU) is represented in the lower line, while 31C3 followed by polyAU is in the upper line.

TLR3 [3] = target: T1, TLR3; assay: Myeloid DC (MdDC) secretion and expression inhibition test; assay type: cell-based; set-up: Myeloid DC (MdDC) were obtained from PBMC by isolating PBMC from normal healthy human donors; endogenous in cells; host or cells: human monocyte-derived DC (CD14+ monocytes cultured with GM-CSF and IL-4); conditions: polyAU
Method: Myeloid DC (MdDC) were obtained from PBMC by isolating PBMC from normal healthy human donors. Monocytes were purified from PBMC using positive selection with human CD14 microbeads (Miltenyi Biotech) following general instructions. Monocytes were further derived into DC (MdDC) by 5-6 days incubation in human GM-CSF (Leucomax, SP) and human IL-4 (R&D Systems) at respectively 200 ng/ml and 20 ng/ml.
The resulting MdDC were then seeded at 10^6 cells/ml, in duplicate, in flat bottom 96-well plates. Cells were activated for 20 hours in a final volume of 200 μl, together with the anti-TLR3 antibodies at the indicated concentrations. Increasing amounts of polyAU were added to the wells to obtain a dose effect read-out at the dose and timepoint as indicated.
Supernatants were collected after 20 h of stimulation, frozen at −20° C., and further assayed for IL-6 and IP-10 using Enzyme-linked immunosorbent assay. Cells were then harvested, stained for activation markers CD86 (with a.huCD86 mouse, IgG1, FITC, BD Biosciences, ref 555657), with detection using FACSCanto™ flow cytometer (BD Biosciences).
Myeloid DC (MdDC) secretion inhibition test is performed according to the section titled Materials and Methods.

[4] = target: T2, recombinant human TLR3 extracellular domain (R&D Systems) (human, UniProt O15455 27-711); assay: SPR (Biacore T100), rhTLR3 immobilised on CM5 chip, bivalent affinity, pH 5.6, mean of 2 or 3 experiments
T2 construct: also called rhTLR3; human rec TLR3; not shown: His tag (R&D #1487-TR)

[5] = target: T2, recombinant human TLR3 extracellular …; assay: SPR (Biacore T100), rhTLR3 immobilised on CM5 chip, bivalent affinity, pH 7.2, mean of 2 or 3 experiments
Method: (a) General Biacore T100 methods. SPR measurements were performed on a Biacore T100 apparatus (Biacore GE Healthcare) at 25° C. In all Biacore experiments HBS-EP+ buffer (Biacore GE Healthcare) or 10 mM sodium acetate pH 5.6, 150 mM NaCl, 0.05% P20 served as running buffer and sensorgrams were analyzed with Biaevaluation 4.1 and Biacore T100 Evaluation software. Recombinant human and mouse TLR3 were purchased from R&D Systems. (b) Protein immobilization. Recombinant TLR3 protein was immobilized covalently to carboxyl groups in the dextran layer of a Biacore Series 5 Sensor Chip CM5 (chip). The chip surface was activated with EDC/NHS (0.2M N-ethyl-N′-(3-dimethylaminopropyl) carbodiimidehydrochloride, 0.05M N-hydroxysuccinimide (Biacore GE Healthcare)). […] Deactivation of the remaining activated groups was performed using 100 mM ethanolamine pH 8 (Biacore GE Healthcare). (c) Antibody binding analysis was run using HBS-EP+ (neutral pH). Antibodies at a concentration of 10 μg/ml were injected for 2 min at a constant flow rate of 10 μl/min over the immobilized proteins and allowed to dissociate for 3 min before regeneration by a ten second injection of 10 mM NaOH, 500 mM NaCl regeneration buffer. Blank correction was performed on line by co-injecting the soluble antibodies onto the reference dextran flow cell. (d) Competition assay in acidic buffer (pH 5.6). […]

TLR3 [6] = target: T1, TLR3; assay: IP-10 production by donor PBMC in response to dsRNA and drug combinations; assay type: cell-based; conditions: mAb 50 μg/ml
Method: IP-10 production was assessed in human donors in response to polyAU (IPH3102), believed to be a specific agonist of TLR3, or pIC, believed to be an agonist of TLR3 as well as other dsRNA receptors such as RIG-I and MDA-5. Fresh PBMC were isolated from whole blood of two independent donors. […] Cells were incubated 1 hr at 37° C. prior addition of 300 μg/ml IPH3102 or 30 μg/ml poly(I:C). Cells were incubated for 24 additional hours at 37° C. Supernatant were then harvested to quantify IP10 production by ELISA. Cells were then recovered, stained with 7-AAD and analyzed by flow cytometry (FACS) to evaluate potential toxic effects of any drugs.

TLR3 [7] = target: T1, TLR3; assay: 293T-TLR3-ISRE luciferase reporter gene assay; assay type: cell-based; set-up: host or cells: 293T (ATCC #CRL-1573), stably carrying pISRE-luc; conditions: dsRNA TLR3 agonist
Description: A reporter gene assay using as promoter ISRE (IFN-stimulated response element) and as reporter gene and protein luciferase was set up. A 293T cell line (ATCC, #CRL-1573) was stably transfected with pISRE-luc plasmid (#219089—Stratagene), further selected by cloning as inducing optimal response to IFN-alpha stimulation and referred to as control 293T-ISRE. This cell line was further stably transfected with pUNO-humanTLR3 plasmid (#puno-htlr3—InVivogen) or pUNO-mouseTLR3 plasmid (#puno-mtlr3—InVivogen) and referred to as 293T-TLR3-ISRE and 293T-mTLR3-ISRE respectively. On day 0, cells are seeded at 4×10^5 cells/mL in complete culture medium in 96-well culture plate (100 μl/well). Cells are first incubated at 37° C. for 20 hours, then 50 μL of medium are discarded and cells are activated with 100 μL/well final of increasing amounts of polyAU together with various concentrations of anti-TLR3 antibodies. Cells incubated with fresh medium will be used as background luciferase activity. Cells are incubated at 37° C. for 6 hours. 100 μL of freshly thawed Steady Glo (Promega) are added to each well, plates were incubated 10 min at RT in the dark and the light emitted in each well is quantified as Count Per Second (CPS) on a gamma-counter (TopCount) apparatus.
Antibodies were tested for inhibition of TLR3 signaling in a luciferase based reporter gene activity (293T-TLR3-ISRE). […] Briefly, dsRNA TLR3 agonists were used to induce TLR3 signaling in the reporter assay in the presence of anti-TLR3 antibodies, and TLR3 signaling was assessed.
In a further set of experiments, 293-huTLR3 cells were incubated with different concentrations of the anti-TLR3 mAbs for 1 to 2 hours (see FIG. 1A; mAb concentration is represented in axis in μg/ml on a logarithmic scale) followed by the addition to the medium of the TLR3 agonist polyAU at a concentration of 300 μg/ml. Luciferase expression was measured after 6 h. […]
Similarly the kinetics of inhibition of the antibodies was evaluated in 293T-TLR3 luciferase assay. […] Luciferase expression was measured at 6 h post poly(A:U) addition. […]

B1: 29H3: anti-human TLR3 monoclonal antibody, IgG1; VH SEQ ID NO: 10, VL SEQ ID NO: 11; CNCM I-4187 (antibody, listed as Mus musculus, V domains shown)
VH: MRVLILLCLFTAFPGILSDVQLQESGPDLVKPSQSLSLTCTVTGYSITSGYSWHWIRQFLGNKLEWMGYIHYSGITNYNPSLRSRISFTRDTSKNQFFLQLNSVTTEDTATYYCARDGYYGMDYWGQGTSVTVS
VL: MDFQTQVFVFVLLWLSGVDGDIVMTQSQKFMSTSVGDRVSITCKASQNVRTSVAWYQQKPGQSPKALIYLASNRHTGVPDRFTGSGSGTDFTLTVSNIQSEDLADYFCLQHWNYPYTFGGGTKLEIK
modifications: SIGNAL (1)..(18); SIGNAL (1)..(20)
notes: anti-human TLR3 monoclonal antibody, IgG1; CNCM I-4187
- binding affinity for TLR3 compared (TLR3 [1]): significantly better
- antibody binding to TLR3 chip previously incubated with polyAU (TLR3 [2]): able to bind TLR3 even in the presence of polyAU
- TLR3-mediated CD83/CD86 expression (TLR3 [3]): effectively downregulated TLR3-mediated CD83/CD86 expression
- TLR3-mediated cytokine/chemokine secretion (IP-10, IL-6) (TLR3 [3]): abrogated TLR3-mediated cytokine/chemokine secretion

B2: antibody 29H3 (antibody, V domains shown)
VH: DVQLQESGPDLVKPSQSLSLTCTVTGYSITSGYSWHWIRQFLGNKLEWMGYIHYSGITNYNPSLRSRISFTRDTSKNQFFLQLNSVTTEDTATYYCARDGYYGMDYWGQGTSVTVS
VL: DIVMTQSQKFMSTSVGDRVSITCKASQNVRTSVAWYQQKPGQSPKALIYLASNRHTGVPDRFTGSGSGTDFTLTVSNIQSEDLADYFCLQHWNYPYTFGGGTKLEIK
notes: also called 29H3.7; CNCM I-4187
- Kd [4]: 0.011 nM
- Kd [5]: 0.0474 nM
- TLR3-mediated CD83/CD86 expression (TLR3 [3]): effectively downregulated TLR3-mediated CD83/CD86 expression
- TLR3-mediated cytokine/chemokine secretion (IP-10, IL-6) (TLR3 [3]): abrogated TLR3-mediated cytokine/chemokine secretion, to a similar extent as full length antibodies

B3: 34A3: anti-human TLR3 monoclonal antibody; VH SEQ ID NO: 34, VL SEQ ID NO: 35 (antibody, listed as Mus musculus, V domains shown)
VH: MEWRWIFLFLLSGTTGVHSEIQLQQSGPELVKPGASVKVSCKASGYVFTTYSIYWVKQSHGKSLEWIGYIDPYNGDTSYNQKFKGKATLTVDKSSSTAYMHLNSLTSEDSTVYYCAREGNYYGYFDYWGQGTTLTVS
VL: MDFQVQIFSFLLMSASVIMSRGQIVLTQSPALMSASPGEKVTMTCSASSSVSYMFWYQQKPRSSPKPWIYLTSNLASGVPARFSGSGSGTSYSLTISSMEAEDAATYYCQQWTGNPPTFGGGTKLEIK
modifications: SIGNAL (1)..(19); SIGNAL (1)..(22)
- IP-10 production in response to polyAU (TLR3 [6]; donor 2, IPH3102 300 μg/ml): substantially reduce IP-10 production
- IP-10 production in response to polyIC (TLR3 [6]; donors 1 and 2, poly(I:C) 30 μg/ml): substantially reduce IP-10 production
- antibody binding to TLR3 chip previously incubated with polyAU (TLR3 [2]): able to bind TLR3 even in the presence of polyAU
- inhibition of TLR3 signaling (TLR3 [7]): strongly inhibited TLR3 signaling in a dose dependent fashion; also recorded: enhanced inhibition effect at low concentrations
